Reference: patent US20170240596A1
No end group written: not given here.

Biological target: Prostate-specific membrane antigen (PSMA) (human), Q04609
Test: apparent Kd, flow cytometry, FAM-labeled peptide on PSMA-positive LNCaP cells, 4 C
Details: remark: other sources report otherwise

Chain of Prostate-specific membrane antigen (PSMA) (human), Q04609 (Q04609 whole entry): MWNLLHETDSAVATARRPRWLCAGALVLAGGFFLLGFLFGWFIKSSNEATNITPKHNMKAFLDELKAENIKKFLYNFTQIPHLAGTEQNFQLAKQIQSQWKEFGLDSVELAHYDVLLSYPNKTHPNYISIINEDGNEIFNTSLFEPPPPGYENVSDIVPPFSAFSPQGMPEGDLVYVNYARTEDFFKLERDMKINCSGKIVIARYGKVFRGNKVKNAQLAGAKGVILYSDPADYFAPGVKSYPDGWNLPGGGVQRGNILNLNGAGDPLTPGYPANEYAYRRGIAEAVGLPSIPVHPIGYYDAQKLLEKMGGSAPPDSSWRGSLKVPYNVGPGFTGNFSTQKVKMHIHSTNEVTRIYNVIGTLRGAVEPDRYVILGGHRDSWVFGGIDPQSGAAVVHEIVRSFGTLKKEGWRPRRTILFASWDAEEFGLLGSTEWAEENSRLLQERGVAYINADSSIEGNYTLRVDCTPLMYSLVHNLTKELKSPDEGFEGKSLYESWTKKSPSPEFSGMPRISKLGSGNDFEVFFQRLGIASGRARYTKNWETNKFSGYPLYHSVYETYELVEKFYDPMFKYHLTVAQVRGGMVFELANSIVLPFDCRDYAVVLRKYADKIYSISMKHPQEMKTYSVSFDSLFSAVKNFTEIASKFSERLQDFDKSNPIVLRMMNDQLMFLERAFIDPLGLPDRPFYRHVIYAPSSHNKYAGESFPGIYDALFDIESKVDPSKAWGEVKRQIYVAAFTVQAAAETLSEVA

**Q.** With WQPDTAHHWATL (also: FAM label, position not given here) [FAM-labeled WQP peptide …] as the binder, how does the Kd read?
**A.** 23.6 µM
